{"source": "paper PMC4735476", "about": "“Dataset concerning GroEL chaperonin interaction with proteins” (Data in Brief, 2016)", "target": "T1, GroEL chaperonin ( (purified from Escherichia …, UniProt P0A6F5 1-548))", "T1 construct": "GroEL chaperonin, purified from Escherichia coli cells (HB101 strain) after expression of the plasmid pGroE4", "T1 sequence (P0A6F5 whole entry)": "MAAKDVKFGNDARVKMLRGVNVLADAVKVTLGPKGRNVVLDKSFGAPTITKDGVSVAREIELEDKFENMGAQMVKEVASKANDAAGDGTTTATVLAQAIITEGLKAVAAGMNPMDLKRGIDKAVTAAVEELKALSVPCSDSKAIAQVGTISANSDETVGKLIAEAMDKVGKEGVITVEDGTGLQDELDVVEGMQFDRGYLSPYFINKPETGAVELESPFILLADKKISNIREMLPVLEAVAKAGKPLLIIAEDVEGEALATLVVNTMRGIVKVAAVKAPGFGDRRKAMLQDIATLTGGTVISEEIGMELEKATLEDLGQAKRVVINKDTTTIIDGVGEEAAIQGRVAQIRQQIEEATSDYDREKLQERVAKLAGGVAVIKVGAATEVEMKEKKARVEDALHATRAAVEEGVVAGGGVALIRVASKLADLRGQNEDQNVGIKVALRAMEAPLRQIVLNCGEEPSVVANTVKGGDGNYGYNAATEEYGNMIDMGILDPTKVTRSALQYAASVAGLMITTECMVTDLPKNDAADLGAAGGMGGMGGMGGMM", "test": "fluorescence polarisation; 30×10^-9 M denatured fluorescein-labeled protein titrated with GroEL in 20 mM Tris–HCl, pH 7.5, 20 mM DTT, 10 mM MgCl2, 300 mM NaCl; apparent constant, counted on GroEL cavities", "conditions": "both partners purified"}
{"binder": "fluorescein-labeled human α-lactalbumin (natural protein, UniProt P00709 20-142, looked up, fluorescein label (fluorescein isothiocyanate), position not stated, Human α-lactalbumin; The same labelled protein was used native (20 mM Tris-HCl, pH 7.5) and denatured (buffer with 20 mM DTT); the assays tell the two states apart; also called native α-lactalbumin; denatured α-lactalbumin; source: bought: Sigma (USA), used without additional purification; labelled with fluorescein isothiocyanate, PD-10 and MonoQ) KQFTKCELSQLLKDIDGYGGIALPELICTMFHTSGYDTQAIVENNESTEYGLFQISNKLWCKSSQVPQSRNICDISCDKFLDDDITDDIMCAKKILDIKGIDYWLAHKALCTEKLEQWLCEKL", "values": [{"measurement": "Kd", "result": 1.6, "unit": "nM"}]}
